Test results as given in patent US20060121042A1 (AstraZeneca / MedImmune, published 2006).
Residue numbers refer to the chain shown, from its start.

Columns and labels:
hEph A1 = biological target: T1, hEph A1; experiment: ELISA
T1 construct: also called human EphA1; not shown: Fc portion of the probable EphA1-Fc fusion (human IgG1 Fc)
T1 chain: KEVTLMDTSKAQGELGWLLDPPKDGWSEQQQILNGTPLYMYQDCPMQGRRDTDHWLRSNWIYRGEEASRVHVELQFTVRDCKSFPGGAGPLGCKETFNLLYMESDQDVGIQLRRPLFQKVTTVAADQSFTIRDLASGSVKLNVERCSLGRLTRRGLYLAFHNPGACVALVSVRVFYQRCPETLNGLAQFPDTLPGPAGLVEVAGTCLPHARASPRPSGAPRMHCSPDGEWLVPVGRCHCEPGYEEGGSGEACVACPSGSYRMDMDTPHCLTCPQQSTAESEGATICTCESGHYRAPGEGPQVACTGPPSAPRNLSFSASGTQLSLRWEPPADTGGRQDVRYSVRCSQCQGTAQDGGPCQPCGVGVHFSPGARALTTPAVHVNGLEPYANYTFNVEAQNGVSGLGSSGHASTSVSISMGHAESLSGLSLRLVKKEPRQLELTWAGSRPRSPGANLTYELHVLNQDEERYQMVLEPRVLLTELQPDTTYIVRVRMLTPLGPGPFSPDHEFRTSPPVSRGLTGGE

rEph A5 = rEph A5 (rat, UniProt P54757); experiment: ELISA
mEph A4 = mEph A4 (mouse, UniProt Q03137); experiment: ELISA
[1] = biological target: T2, human EphA4 (construct not given) (human, UniProt P54764 20-547, limits assumed); experiment: ELISA
T2 construct: also called EphA4 receptor

mEph A6 = biological target: T3, mEph A6 (mouse, UniProt Q62413); experiment: ELISA
T3 sequence (receptor, looked up): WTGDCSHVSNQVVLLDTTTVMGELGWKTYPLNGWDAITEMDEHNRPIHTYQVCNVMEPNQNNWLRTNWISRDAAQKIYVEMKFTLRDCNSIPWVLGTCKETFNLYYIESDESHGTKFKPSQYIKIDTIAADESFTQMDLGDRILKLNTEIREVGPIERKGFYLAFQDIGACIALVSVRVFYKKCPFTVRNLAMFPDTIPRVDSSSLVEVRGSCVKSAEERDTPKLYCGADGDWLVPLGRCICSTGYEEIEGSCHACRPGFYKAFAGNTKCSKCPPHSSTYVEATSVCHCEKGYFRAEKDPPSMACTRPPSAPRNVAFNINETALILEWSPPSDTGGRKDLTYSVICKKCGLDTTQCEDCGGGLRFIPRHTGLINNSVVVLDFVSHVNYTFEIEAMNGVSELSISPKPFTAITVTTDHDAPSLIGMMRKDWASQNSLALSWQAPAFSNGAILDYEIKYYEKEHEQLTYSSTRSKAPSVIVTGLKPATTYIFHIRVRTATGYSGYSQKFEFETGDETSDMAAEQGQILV

rmEph B2 = biological target: T4, rmEph B2 (mouse, UniProt P54763); experiment: ELISA
T4 sequence (receptor, looked up): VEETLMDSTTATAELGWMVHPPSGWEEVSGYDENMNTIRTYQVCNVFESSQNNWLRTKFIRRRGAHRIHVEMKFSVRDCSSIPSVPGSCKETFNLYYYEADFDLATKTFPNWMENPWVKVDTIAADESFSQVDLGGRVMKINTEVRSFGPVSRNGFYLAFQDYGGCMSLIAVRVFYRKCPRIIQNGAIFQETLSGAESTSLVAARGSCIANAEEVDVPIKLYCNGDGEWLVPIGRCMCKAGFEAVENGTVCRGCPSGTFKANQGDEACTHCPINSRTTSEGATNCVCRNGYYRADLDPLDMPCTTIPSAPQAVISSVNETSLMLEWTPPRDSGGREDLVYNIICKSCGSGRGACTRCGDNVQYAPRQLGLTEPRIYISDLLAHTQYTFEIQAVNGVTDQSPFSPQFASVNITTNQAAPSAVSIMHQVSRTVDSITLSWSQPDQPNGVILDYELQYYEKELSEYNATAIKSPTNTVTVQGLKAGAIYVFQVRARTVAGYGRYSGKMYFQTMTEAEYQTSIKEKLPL

rmEph B3 = biological target: T5, rmEph B3 (mouse, UniProt P54754); experiment: ELISA
T5 sequence (receptor, looked up): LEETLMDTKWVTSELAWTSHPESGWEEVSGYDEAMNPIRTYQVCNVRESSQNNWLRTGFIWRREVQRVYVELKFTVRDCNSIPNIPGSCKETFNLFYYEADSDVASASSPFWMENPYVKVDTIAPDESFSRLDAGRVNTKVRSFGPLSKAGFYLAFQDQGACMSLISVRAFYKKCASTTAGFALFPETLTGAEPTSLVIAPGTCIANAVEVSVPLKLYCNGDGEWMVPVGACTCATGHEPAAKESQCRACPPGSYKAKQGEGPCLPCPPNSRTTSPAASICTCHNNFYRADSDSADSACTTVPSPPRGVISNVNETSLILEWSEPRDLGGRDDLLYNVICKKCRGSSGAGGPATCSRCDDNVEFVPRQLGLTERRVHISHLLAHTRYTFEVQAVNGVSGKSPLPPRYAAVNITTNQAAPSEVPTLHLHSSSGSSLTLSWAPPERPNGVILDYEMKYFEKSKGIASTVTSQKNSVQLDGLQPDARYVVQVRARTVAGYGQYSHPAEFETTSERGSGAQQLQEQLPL

rrEphB1 = biological target: T6, rrEphB1 (rat, UniProt P09759); experiment: ELISA
T6 sequence (receptor, looked up): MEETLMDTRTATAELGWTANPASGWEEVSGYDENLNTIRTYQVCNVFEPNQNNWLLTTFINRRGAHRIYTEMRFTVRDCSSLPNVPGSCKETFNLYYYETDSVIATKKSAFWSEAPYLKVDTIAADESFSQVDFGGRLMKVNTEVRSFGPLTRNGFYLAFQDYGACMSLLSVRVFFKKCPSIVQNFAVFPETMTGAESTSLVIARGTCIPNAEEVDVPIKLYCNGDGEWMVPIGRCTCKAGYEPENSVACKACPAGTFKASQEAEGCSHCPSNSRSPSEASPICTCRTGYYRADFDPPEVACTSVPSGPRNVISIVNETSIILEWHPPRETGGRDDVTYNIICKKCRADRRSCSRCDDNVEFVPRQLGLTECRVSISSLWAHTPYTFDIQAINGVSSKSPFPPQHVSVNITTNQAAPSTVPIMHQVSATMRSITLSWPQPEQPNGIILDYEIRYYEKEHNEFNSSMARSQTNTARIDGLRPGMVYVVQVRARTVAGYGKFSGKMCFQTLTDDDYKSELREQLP

r murine EphA4 = biological target: T7, r murine EphA4 (mouse, UniProt Q03137); experiment: activity ELISA, Fab on coated antigen
T7 construct: recombinant Fc fusion (R&D Systems); also called rmuEphA4-Fc; mEphA4
Description: (§1) More precisely, Nunc Maxisorp plates were coated with the following rEphA proteins: rhuEphAl-Fc, rmuEphA2-Fc, rmuEphA3-Fc, rmuEphA4-Fc, rratEphA5-Fc, rmuEphA6-Fc, rmuEphA7-Fc, rEphA8; all at 0.5 μg/well (all R&D Systems) rhuEphA2-Fc; 0.5 μg/well, and rhuEphA4-His; 0.1 μg/well (both produced at MedImmune, Inc.). Plates were blocked with 3% BSA+0.1% Tween20 for 2 h. […] Incubation with a goat anti-human kappa horseradish peroxydase (HRP) conjugate then followed. HRP activity was detected with TMB substrate and the reaction quenched with 0.2 M H₂SO₄. Plates were read at 450 nm. Data was analyzed by normalizing Fab concentrations to the corresponding activity data (see FIGS. 10B-10H).

r murine EphA8 [2] = biological target: T8, r murine EphA8 (mouse, UniProt O09127); experiment: activity ELISA, Fab on coated antigen
T8 construct: recombinant (rEphA8, R&D Systems); also called rEphA8
T8 sequence (receptor, looked up): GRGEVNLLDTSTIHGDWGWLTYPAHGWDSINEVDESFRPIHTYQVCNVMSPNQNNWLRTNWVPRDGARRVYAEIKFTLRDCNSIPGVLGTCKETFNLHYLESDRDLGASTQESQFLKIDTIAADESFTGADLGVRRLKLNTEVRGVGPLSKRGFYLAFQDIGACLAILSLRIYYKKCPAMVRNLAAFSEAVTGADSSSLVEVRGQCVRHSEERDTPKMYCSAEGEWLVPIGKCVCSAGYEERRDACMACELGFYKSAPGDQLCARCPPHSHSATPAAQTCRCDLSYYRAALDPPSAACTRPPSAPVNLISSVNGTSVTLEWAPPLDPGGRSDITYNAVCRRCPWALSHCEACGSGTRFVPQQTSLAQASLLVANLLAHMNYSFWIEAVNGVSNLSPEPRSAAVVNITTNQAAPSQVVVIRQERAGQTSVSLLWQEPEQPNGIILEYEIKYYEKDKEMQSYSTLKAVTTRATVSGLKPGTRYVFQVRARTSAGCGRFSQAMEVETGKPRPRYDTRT
Description: as §1

r murine EphA7 = biological target: T9, r murine EphA7 (mouse, UniProt Q61772); experiment: activity ELISA, Fab on coated antigen
T9 construct: recombinant Fc fusion (R&D Systems); also called rmuEphA7-Fc; mEphA7
T9 sequence (receptor-Fc fusion, looked up): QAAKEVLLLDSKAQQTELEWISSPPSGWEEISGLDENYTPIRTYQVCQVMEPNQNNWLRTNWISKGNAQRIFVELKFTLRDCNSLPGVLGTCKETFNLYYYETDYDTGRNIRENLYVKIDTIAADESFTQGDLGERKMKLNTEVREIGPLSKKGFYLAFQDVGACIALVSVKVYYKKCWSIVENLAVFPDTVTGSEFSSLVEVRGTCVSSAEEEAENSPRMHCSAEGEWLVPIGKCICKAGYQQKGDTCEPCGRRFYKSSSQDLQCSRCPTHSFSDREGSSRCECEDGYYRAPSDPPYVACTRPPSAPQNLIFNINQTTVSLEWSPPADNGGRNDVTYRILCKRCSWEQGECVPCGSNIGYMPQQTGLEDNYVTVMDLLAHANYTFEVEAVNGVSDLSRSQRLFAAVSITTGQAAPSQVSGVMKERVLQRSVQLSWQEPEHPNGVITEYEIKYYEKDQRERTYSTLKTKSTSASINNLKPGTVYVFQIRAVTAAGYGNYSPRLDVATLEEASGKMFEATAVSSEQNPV
Description: as §1

r murine EphA8 [3] = biological target: T10, r murine EphA8 (mouse, UniProt O09127); experiment: Activity ELISA, receptor coated on the plate, periplasmic Fab, anti-human kappa-HRP, OD 450 nm
T10 construct: recombinant soluble protein coated on the plate; also called mEphA8; rEphA8
T10 sequence (receptor construct, looked up): T8 sequence (receptor, looked up)

Sequence of mEph A4 (Q03137 20-547 limits assumed): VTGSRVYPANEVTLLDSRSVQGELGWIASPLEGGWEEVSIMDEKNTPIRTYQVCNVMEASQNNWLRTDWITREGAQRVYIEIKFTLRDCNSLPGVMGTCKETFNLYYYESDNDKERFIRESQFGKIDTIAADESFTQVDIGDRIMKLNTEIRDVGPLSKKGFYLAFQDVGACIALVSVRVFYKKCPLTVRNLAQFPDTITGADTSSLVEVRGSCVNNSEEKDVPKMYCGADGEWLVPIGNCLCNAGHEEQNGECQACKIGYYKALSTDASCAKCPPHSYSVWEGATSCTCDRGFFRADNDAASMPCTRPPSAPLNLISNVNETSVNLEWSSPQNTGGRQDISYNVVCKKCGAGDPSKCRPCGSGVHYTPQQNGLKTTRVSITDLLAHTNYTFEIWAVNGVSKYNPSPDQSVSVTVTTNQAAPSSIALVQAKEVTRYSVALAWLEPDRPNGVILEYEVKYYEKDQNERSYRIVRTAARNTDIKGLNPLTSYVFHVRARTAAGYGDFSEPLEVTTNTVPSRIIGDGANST
T7 sequence (Q03137 20-547 limits assumed): as above
Sequence of rEph A5 (P54757 27-575 limits assumed): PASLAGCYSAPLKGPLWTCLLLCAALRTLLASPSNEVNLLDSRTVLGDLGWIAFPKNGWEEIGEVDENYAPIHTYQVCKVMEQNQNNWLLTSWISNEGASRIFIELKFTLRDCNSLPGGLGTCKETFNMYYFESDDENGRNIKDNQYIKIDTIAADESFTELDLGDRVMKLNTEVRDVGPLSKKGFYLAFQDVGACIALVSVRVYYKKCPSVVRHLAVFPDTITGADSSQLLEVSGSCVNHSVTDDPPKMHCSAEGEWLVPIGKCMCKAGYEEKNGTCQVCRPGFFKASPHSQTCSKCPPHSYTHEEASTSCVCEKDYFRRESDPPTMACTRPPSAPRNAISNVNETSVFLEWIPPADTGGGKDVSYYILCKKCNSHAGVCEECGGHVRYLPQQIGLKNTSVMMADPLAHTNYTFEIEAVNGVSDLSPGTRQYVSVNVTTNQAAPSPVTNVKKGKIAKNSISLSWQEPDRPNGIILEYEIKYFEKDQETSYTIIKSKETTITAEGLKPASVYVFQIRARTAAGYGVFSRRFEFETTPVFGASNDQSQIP
T2 sequence (P54764 20-547 limits assumed): as the sequence (Q03137 20-547 limits assumed) above, with A59P, S121N, G124V, Q250R, N251S, S270T, R378K, S406N counted along it

B1: GEA44 11H1 (antibody, V domains shown)
VH: QVQLLQSGAEVKKPGASVKVPCKASGYTFTSYAMSWVRQAPGQGLEWMGWINTNTGNPTYAQGFTGRFVFSLDTSVSTAYLQISSLKAEDTAVYYCARVRLTVYGDGMDVWGQGTLVTVSS
VL: EIVLTQSPATLSVSPGERATLSCRASQSVSSNLAWYQQKPGQAPRLLIYGASTRATGIPDRFSASGSGTDFTLTISRVEPEDFAVYYCQQYGSSWTFGQGTKVEIK
notes: same variable regions as m16
- ELISA O.D. value (hEph A1): 0.784
- ELISA O.D. value (rEph A5): 0.717
- ELISA O.D. value (mEph A4): 0.358
- ELISA O.D. value [1]: 0.887
- ELISA O.D. value (mEph A6): 1.43
- ELISA O.D. value (rmEph B2): 0.581
- binding result (rmEph B3): binds
- binding result (rrEphB1): binds

B2: 3A12 Fab (affinity optimized combinatorial variant of Fab20) (Fab, V domains shown)
VH: B1 VH with Y32R, L101F
VL: B1 VL with R54W, S93P
- binding result (r murine EphA4): binds
- binding result (r murine EphA8 [2]): binds
- binding result (r murine EphA7): binds
- binding result (r murine EphA8 [3]): binds
